# Assay results from paper PMC5472775.
# Assays:
# [1] = target: CENP-C-CD R521A R521A (Homo sapiens) (UniProt Q03188); experiment: EMSA; conditions: apparent Kd; 200 nM nucleosome; EMSA: 200 nM nucleosomes, 20 mM Tris-Cl pH 7.5, 1 mM EDTA, 1 mM DTT, on ice 1 h, 5% native PAGE; footprinting at room temperature, 5 min
# [2] = target: CENP-C-CD R522A R522A (Homo sapiens) (UniProt Q03188); experiment: EMSA; conditions: apparent Kd; 200 nM nucleosome; EMSA: 200 nM nucleosomes, 20 mM Tris-Cl pH 7.5, 1 mM EDTA, 1 mM DTT, on ice 1 h, 5% native PAGE; footprinting at room temperature, 5 min
sequence,measurement,setting,value
"ATCAAATATCCACCTGCAGATTCTACCAAAAGTGTATTTGGAAACTGCTCCATCAAAAGGCATGTTCAGCTCTGTGAGTGAAACTCCATCATCACAAAGAATATTCTGAGAATGCTTCCGTTTGCCTTTTATATGAACTTCCTCGAT (double strand) [CENP-A NCP, Cy5-H2B, 147 bp DNA]",Kd,[1],0.267 µM
same,Kd,[2],0.655 µM
